Source: article PMC11171812

Molecular target: recombinant Plasmodium knowlesi lactate dehydrogenase (Plasmodium knowlesi)
Assay: native gel or EMSA; PAGE under native (non-reducing) conditions, 2 ug purified PkLDH in native sample buffer without SDS, 10% polyacrylamide gel without SDS, Coomassie Brilliant Blue R-250; single band between 135 and 180 kDa (monomer ~35.0 kDa on SDS-PAGE)

stoichiometry N: 4
Substance: recombinant Plasmodium knowlesi lactate dehydrogenase (enzyme)
